Earlier results in article PMC7252266.

Target: UROD (Homo sapiens) (UniProt P06132)

Kd: 100 nM
Substance: UROD (from UniProt P06132)
